The source of these data is patent US20020055173, “Method for preparing adenovirus vectors, vectors so prepared, and uses thereof” (published 2002).

Data set [1] has as its target T1, MAZ (UniProt P56270 P56270:1-477).
T1 sequence: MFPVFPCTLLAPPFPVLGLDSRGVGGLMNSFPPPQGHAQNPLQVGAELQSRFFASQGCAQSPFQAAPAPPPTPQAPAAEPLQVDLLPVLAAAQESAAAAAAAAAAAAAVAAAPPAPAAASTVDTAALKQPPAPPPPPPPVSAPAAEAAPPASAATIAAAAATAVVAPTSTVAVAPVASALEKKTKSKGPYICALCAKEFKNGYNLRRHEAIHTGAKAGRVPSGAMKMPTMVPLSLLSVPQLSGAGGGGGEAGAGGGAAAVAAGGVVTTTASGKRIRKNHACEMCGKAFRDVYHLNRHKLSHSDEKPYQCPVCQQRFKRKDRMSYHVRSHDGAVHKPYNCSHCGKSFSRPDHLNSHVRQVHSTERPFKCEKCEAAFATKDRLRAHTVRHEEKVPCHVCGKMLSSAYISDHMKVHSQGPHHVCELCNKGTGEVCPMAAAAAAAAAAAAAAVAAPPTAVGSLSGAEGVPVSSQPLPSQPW
Put plainly: footprint; interaction substantially blocked. Conditions: tags: prepared as in Parks and Shenk 1996; label: 5' end label in luciferase coding region.

Data set [2] addresses T2, Sp1 (UniProt P08047 P08047:2-785). Put plainly: footprint; interaction substantially blocked. Conditions: tags: Promega; label: 5' end label in luciferase coding region.
Data set [3] concerns the target T2, Sp1. Put plainly: footprint; one Sp1 site (-18GC). Conditions: tags: Promega; label: 5' end label in luciferase coding region.
Data set [4] has as its target T1, MAZ. Put plainly: footprint; two MAZ sites. Conditions: tags: prepared as in Parks and Shenk 1996; label: 5' end label in luciferase coding region.
For data set [5], the target named is T2, Sp1. Put plainly: footprint; interaction completely blocked. Conditions: tags: Promega; label: 5' end label in luciferase coding region.
In data set [6] the target is T2, Sp1. Put plainly: footprint; Sp1 footprint not altered. To be noted: tags: Promega; label: 5' end label in luciferase coding region.

T2 sequence (P08047 2-785, one chain of several): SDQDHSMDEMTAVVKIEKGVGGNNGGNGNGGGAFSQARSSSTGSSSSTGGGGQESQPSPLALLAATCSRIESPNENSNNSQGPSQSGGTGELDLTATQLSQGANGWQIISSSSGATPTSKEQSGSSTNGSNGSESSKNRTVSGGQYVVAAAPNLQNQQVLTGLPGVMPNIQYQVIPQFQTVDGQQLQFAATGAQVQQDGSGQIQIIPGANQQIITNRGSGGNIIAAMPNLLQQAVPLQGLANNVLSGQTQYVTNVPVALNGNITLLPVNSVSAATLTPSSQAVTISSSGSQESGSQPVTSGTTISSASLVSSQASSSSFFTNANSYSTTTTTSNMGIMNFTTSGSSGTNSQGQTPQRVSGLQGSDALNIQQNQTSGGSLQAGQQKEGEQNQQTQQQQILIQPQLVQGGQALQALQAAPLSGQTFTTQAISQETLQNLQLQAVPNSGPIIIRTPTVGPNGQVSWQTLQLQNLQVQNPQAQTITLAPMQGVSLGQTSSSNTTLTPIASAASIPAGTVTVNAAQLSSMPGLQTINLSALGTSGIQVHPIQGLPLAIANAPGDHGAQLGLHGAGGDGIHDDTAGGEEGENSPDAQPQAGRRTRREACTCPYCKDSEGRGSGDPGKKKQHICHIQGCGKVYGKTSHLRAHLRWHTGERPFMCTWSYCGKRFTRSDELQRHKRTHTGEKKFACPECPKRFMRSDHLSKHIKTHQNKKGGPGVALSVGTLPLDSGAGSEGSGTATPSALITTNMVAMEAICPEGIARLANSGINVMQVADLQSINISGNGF

B1: minimal MLP M3 (-18GC and -36GC mutant) (dsDNA)
DNA 1: TGTTGTTGTTCTATAAAAGTGTGTGTGTGTGCGTTCGTCCTCACTCTCTTCC
DNA 2: GGAAGAGAGTGAGGACGAACGCACACACACACACTTTTATAGAACAACAACA
B1: the binding result with MAZ [1] and with Sp1 [2] was “no binding” each time.

B2: minimal MLP wild type (dsDNA)
DNA 1: TGAAGGGGGGCTATAAAAGGGGGTGGGGGCGCGTTCGTCCTCACTCTCTTCC
DNA 2: GGAAGAGAGTGAGGACGAACGCGCCCCCACCCCCTTTTATAGCCCCCCTTCA
Take B2: the binding result in the data set with Sp1 [3] and in the data set with MAZ [4] was “binds” throughout.

B3: minimal MLP M1 (-18GC mutant) (dsDNA)
DNA 1: TGAAGGGGGGCTATAAAAGTGTGTGTGTGTGTGTTCGTCCTCACTCTCTTCC
DNA 2: GGAAGAGAGTGAGGACGAACACACACACACACACTTTTATAGCCCCCCTTCA
For B3, the binding result with Sp1 [5] is on record as “no binding”.

B4: minimal MLP M2 (-36GC mutant) (dsDNA)
DNA 1: TGTTGTTGTTCTATAAAAGGGGGTGGGGGCGCGTTCGTCCTCACTCTCTTCC
DNA 2: GGAAGAGAGTGAGGACGAACGCGCCCCCACCCCCTTTTATAGAACAACAACA
In the case of B4, the binding result with Sp1 [6] is reported as “binds”.
